Target: Recombinant human Fc-tagged MCAM IgG1-2A (human) (UniProt P43121)
Test: SPR (Biacore T200), steady state, MCAM IgG1-2A captured by anti-Fc IgG, laminin in solution

Sequence of Recombinant human Fc-tagged MCAM IgG1-2A (human) (P43121 19-242): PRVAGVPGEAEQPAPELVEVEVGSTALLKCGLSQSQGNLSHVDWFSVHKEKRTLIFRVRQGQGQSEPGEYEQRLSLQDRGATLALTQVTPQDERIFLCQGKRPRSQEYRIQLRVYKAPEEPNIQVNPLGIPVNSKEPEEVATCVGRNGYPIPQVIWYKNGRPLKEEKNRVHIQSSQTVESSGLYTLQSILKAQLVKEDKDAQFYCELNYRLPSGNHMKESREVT

- Kd: 66 nM
Substance: Recombinant human laminin 411 (Biolamina) (from UniProt Q16363 25-1823; P07942 22-1786; P11047 34-1609) (ligand)
